B1: MSA1 (VHH)
VHH: EVQLVESGGGLAQAGGSLRLSCADSGHSFSLYAMAWFRQTPEKEREFVAAISSSGGDTYYADSVKGRFTISRENAKNTAYLQMDSLKPGDTAVYFCAGNYYTSQLMRGMYEHWGQGTQVTVSS
notes: Llama single domain antibody with C-terminal His-tag, made in HEK293; not shown: C-terminal His-tag
B2: 4-1BB-36 (VHH, not shown: small tags and cut ends)
VHH: EVQLVESGGGLVQPGGSLRLSCAASRRTFSSYTAGWFRQAPGKEREFVASIRWISGTTTYADSVNGRFTISRDIAKNTVYLQMNSLKPDDTAVYYCAVDLSSDNDYDYWGQGTQVTVSS
B3: 4-1BB-1 (VHH, not shown: small tags and cut ends)
VHH: QVQLVESGGGLVQAGGSLRLSCAASENIFSFNAMAWYRQAPGKQRELVALITGDGTTKYADSVKGRFTIARLNAKNTVNLEMNSLKPEDTAVYTCAALRNSDRTSWGQGTQVTVSS
B4: pgDD40-SZ-12 (VHH, not shown: small tags and cut ends)
VHH: EVQLVESGGGLVQPGGSLKLSCAASGFAFSRYTMSWVRQAPGKGLEWVSGIDSGGGRTSYINSVKGRFTISRDNAKNTLYLQMNSLKPEDTAVYHCAQGGDSGSYYRTSWGQGTQVTVSS
B5: 4-1BB-2 (VHH, not shown: small tags and cut ends)
VHH: QVQLVESGGGLVQAGGSLRLSCAASGSIFSYNAMAWYRQAPGKQRELVALITSDRTTKYADSVKGRFTISRDDTKNTVDLEMNSLKPEDTAVYTCAALLNSARTSWGQGTQVTVSS
B6: 4-1BB-39 (VHH, not shown: small tags and cut ends)
VHH: QVQLGSLGGGSAQPGGSLRLSCTGSGNVYDFVVMGWYRQFPGRQRELVANITGRASPNYVDSVKGRFTISRDNAQNTVHLQMNNLKVEDSAIYYCYAAQQLTTIAGVMTLDYWGSGTQVTVSS
B7: MSA B1 (VHH)
VHH: EVQLVESGGGLVQPGGSLHLSCAASRLTTGVTFSDYGMAWFRQAPGAERELLANINWSGQYTNYRDSVKGRAAIFRDNAKNTLYLNINSLKAEDTAVYYCAASSRKYGPGIKSQYEWWGQGTQVTVSS
notes: as for B1
B8: 4-1BB-56 (VHH, not shown: small tags and cut ends)
VHH: QVQLVESGGGLVQTGGSLRLSCAASGRISTIDTMFWYRQTPGKERDWVAFIPKDGLPTYVDSVKGRFTVSRDNARNTVYLQMNGLKPEDTAVYYCAVDVQEDRMRTYWGQGTQVTVSS
B9: pgDD40-SZ-5 (VHH, not shown: small tags and cut ends)
VHH: QVQLVESGGALAQPGGSLRLSCEASENVRSVNAMAWYRQGPGKPRELVANITSGDATYYADSVKGRFTLSREGARNTVYLQMNSLKPEDTAVYQCNVHYTSWGGIRRDYWGRGTQVTVSS
B10: 4-1BB-10 (VHH, not shown: small tags and cut ends)
VHH: EVQLVESGGGLVQAGGSLRLSCAASGAIFSYNGMAWYRQAPGKQREFVAVITPDGTTKYGDSVKGRFTISRDITKNTVDLEMNSLKPEDTAVYTCAALRNSGSTSWGQGTQVTVSS
B11: 4-1BB-9 (VHH, not shown: small tags and cut ends)
VHH: QVQLVESGGGLVQAGGSLRLSCAASGSIFSYNAVAWYRQAPGKQRELVAVITSGGETTKYADSVKGRFTISRDITKNAVDLQMVSLKPEDTAVYTCAALRNSGSTSWGQGTQVTVSS
B12: 4-1BB-3 (VHH, not shown: small tags and cut ends)
VHH: EVQLVESGGGLVQAGGSLRLSCAASGNIFSYNGMAWYRQAPGNQRELVAVVAIDGTAKYADTVKGRFTISRDNIKNTVNLEMNSLKPEDTAVYTCAALRNSGSTSWGQGTQVTVSS
B13: pgDD40-SZ-3 (VHH, not shown: small tags and cut ends)
VHH: QVQLVESGGGLVQAGDSLRLSCTASGRAFNTYTMAWFRQAPGKERDFVAAISRDGTITHYADSVKGRFTTTRDNAKNTMYLQMSSLKYDDTAVYYCAARRVGAVPERESAYEHWGQGTQVTVSS

How the values were obtained:
human serum albumin = target: T1, human serum albumin (human, UniProt P02768 25-609); test: BLI (Gator), His-tagged VHH on anti-His sensor, HSA 100 nM in solution
T1 construct: also called HSA
Description: (§1) Kinetic binding analysis of MSA VHHs were performed with Gator Prime system equipped with analyze software. […] The experiments were done at 30° C. Prior to analysis, sensors were socked in Q buffer for 600 sec with shaking at 1000 rpm, and then 2 μM of HIS tagged MSA VHHs were loaded to Anti-His sensors with shaking at 400 rpm for 120 sec. Loaded sensors were transferred into Q buffer for 60 sec. Association of HSA or MSA at 100 nM was initiated and monitored for 120-180 sec with shaking at 1000 rpm, and finally dissociation in Q buffer for 120-180 sec with 1000 rpm shaking. Software V2.0 (Gator Bio) was used for data analysis. The on-rate (Kₒₙ) and off-rate (Kd) were determined by fitting of the association and dissociation phases of each sample. The mathematical model used assumes a 1:1 stoichiometry, fitting only one analyte in solution binding to one binding site on the surface. The equilibrium dissociation constant (KD), a measure for affinity, was then calculated as the ratio of Kd and Kₒₙ.

murine serum albumin = target: T2, murine serum albumin (murine, UniProt P07724 25-608); test: BLI (Gator), His-tagged VHH on anti-His sensor, murine serum albumin 100 nM in solution
T2 construct: As antigen 'MSA' means murine serum albumin; the VHHs also carry the label MSA; also called MSA
Description: as §1

4-1BB Fc [1] = target: T3, 4-1BB Fc (human, UniProt Q07011 24-183); test: ELISA, 4-1BB Fc coated, VHH at 5 nM
T3 construct: also called rh-41BB; 41BB-hFc
Description: (§2) After four rounds of washing with PBST, the plate was incubated with detecting antibody anti-his-HRP (1:4000 dilution) 100 μl per well for one hour with shaking at 60 rpm. The plate was developed with 100 μL of TMB per well in the dark and then stopped by 50 μL of stop solution per well. […] Data was analyzed using GraphPad Prisma 9.1.

4-1BB Fc [2] = target: T3, 4-1BB Fc; test: ELISA, 4-1BB Fc coated, VHH at 50 nM
Description: as §2

4-1BB Fc [3] = target: T3, 4-1BB Fc; test: ELISA, 4-1BB Fc coated, VHH at 0.5 nM
Description: as §2

4-1BB Fc [4] = target: T3, 4-1BB Fc; test: ELISA, 4-1BB Fc coated, VHH at 500 nM
Description: as §2

4-1BB Fc [5] = target: T3, 4-1BB Fc; test: ELISA, 4-1BB Fc coated, VHH at 0.05 nM
Description: as §2

4-1BB Fc [6] = target: T3, 4-1BB Fc; test: ELISA, 4-1BB Fc coated, VHH at 0.005 nM
Description: as §2

4-1BB Fc [7] = target: T3, 4-1BB Fc; test: ELISA, 4-1BB Fc coated, VHH at 0.0005 nM
Description: as §2

4-1BB Fc [8] = target: T3, 4-1BB Fc; test: ELISA, 4-1BB Fc coated, VHH at 0.00005 nM
Description: as §2

Human 41BB antigen (BLI) = target: T4, Human 41BB antigen (BLI) (human, UniProt Q07011 24-183); test: BLI, VHH-His on anti-His tips, human 41BB in solution;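 further: association tracked for 200 s, after which dissociation was followed in 1×PBS free of 41BB protein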
T4 construct: also called 41BB protein
Description: Tips were loaded using 20 μg/ml of anti-41BB VHH. Loading proceeded for 300 sec resulting in capture levels of between 1.8 and 2 nm. […] Association was initiated and monitored for 200 sec, after which tips were transferred to 1×PBS buffer without 41BB protein, in order to monitor dissociation.

[9] = target: T5, recombinant human CD40-Fc (human, UniProt P25942 21-193); test: ELISA, CD40-Fc coated, VHH at 8 nM
T5 construct: also called rh-CD40-Fc; CD40-hFc
Description: (§3) After four times washing with PBST, the plate was incubated with detecting antibody anti-his-HRP (1:4000 dilution) 100 μl per well for one hour with shaking at 60 rpm. The plate was developed with 100 μL of TMB per well in the dark and then stopped by 50 μL of stop solution per well.

[10] = target: T5, recombinant human CD40-Fc; test: ELISA, CD40-Fc coated, VHH at 40 nM
Description: as §3

[11] = target: T5, recombinant human CD40-Fc; test: ELISA, CD40-Fc coated, VHH at 1.6 nM
Description: as §3

[12] = target: T5, recombinant human CD40-Fc; test: ELISA, CD40-Fc coated, VHH at 200 nM
Description: as §3

[13] = target: T5, recombinant human CD40-Fc; test: ELISA, CD40-Fc coated, VHH at 0.32 nM
Description: as §3

[14] = target: T5, recombinant human CD40-Fc; test: ELISA, CD40-Fc coated, VHH at 1000 nM
Description: as §3

[15] = target: T5, recombinant human CD40-Fc; test: ELISA, CD40-Fc coated, VHH at 0.013 nM
Description: as §3

[16] = target: T5, recombinant human CD40-Fc; test: ELISA, CD40-Fc coated, VHH at 0.064 nM
Description: as §3

[17] = target: T5, recombinant human CD40-Fc; test: ELISA, CD40-Fc coated, VHH at 0.0026 nM
Description: as §3

[18] = target: T6, Human CD40 antigen (recombinant, BLI) (human, UniProt P25942 21-193); test: BLI, VHH-His on anti-His tips, human CD40 in solution;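 further: kinetics measured at 30 °C in PBS pH 7.2, association tracked for 200 s, then dissociation followed in PBS lacking CD40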
T6 construct: also called rh-CD40
T6 sequence (P25942 21-193 limits assumed): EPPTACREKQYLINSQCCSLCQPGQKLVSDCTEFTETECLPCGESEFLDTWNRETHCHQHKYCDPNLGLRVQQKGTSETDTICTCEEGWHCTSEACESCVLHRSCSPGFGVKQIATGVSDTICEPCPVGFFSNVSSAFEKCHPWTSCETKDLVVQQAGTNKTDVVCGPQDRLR
Description: Bio-Layer Interferometry (BLI) kinetic binding analysis. […] Affinity measurements were performed with Gator equipped with Anti-Penta-His capture (HIS1K) biosensor tips. The assay was performed at 30° C. in 1×PBS buffer (Gibco®, PBS pH7.2). Samples were agitated at 1000 rpm. Prior to analysis, sensors were humidified for 15 min. […] Sensor data was collected throughout the experiments, processed, and analyzed using the Gator data analysis software.
Briefly, purified anti-CD40 VHH was tested for its binding capacity with HIS1K sensor tips. Tips were loaded using 20 μg/ml of anti-CD40 VHH. Loading proceeded for 300 sec resulting in capture levels of between 1.8 and 2 nm. […] Association was initiated and monitored for 200 sec, after which tips were transferred to 1×PBS buffer without CD40 protein in order to monitor dissociation.

T4 sequence (Q07011 24-183 limits assumed): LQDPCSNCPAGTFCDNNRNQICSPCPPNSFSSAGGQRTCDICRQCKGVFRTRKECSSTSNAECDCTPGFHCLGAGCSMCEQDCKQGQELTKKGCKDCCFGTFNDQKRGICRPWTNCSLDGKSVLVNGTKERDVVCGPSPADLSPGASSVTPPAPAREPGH
T3 sequence (Q07011 24-183): as the sequence (Q07011 24-183 limits assumed) above
T5 sequence (P25942 21-193): as the sequence (P25942 21-193 limits assumed) above

Binder	OD450 (4-1BB Fc [1])	OD450 (4-1BB Fc [2])	OD450 (4-1BB Fc [3])	OD450 (4-1BB Fc [4])	OD450 (4-1BB Fc [5])	OD450 (4-1BB Fc [6])	OD450 (4-1BB Fc [7])	OD450 (4-1BB Fc [8])	Kd (Human 41BB antigen (BLI))	koff (Human 41BB antigen (BLI))	kon (Human 41BB antigen (BLI))	also measured
B1	–	–	–	–	–	–	–	–	–	–	–	koff (human serum albumin): 0.0217 s⁻¹; Kd (murine serum albumin): 6.64 nM; koff (murine serum albumin): 0.00117 s⁻¹; kon (murine serum albumin): 176000 M⁻¹ s⁻¹
B2	1.35	3.19	0.202	4.25	0.078	0.068	0.071	0.073	29.2 nM	0.00919 s⁻¹	314000 M⁻¹ s⁻¹	–
B3	0.108	0.308	0.106	0.547	0.061	0.064	0.065	0.067	3.17 nM	0.00264 s⁻¹	834000 M⁻¹ s⁻¹	–
B4	–	–	–	–	–	–	–	–	–	–	–	OD450 [9]: 0.09; OD450 [10]: 0.256; OD450 [11]: 0.061; OD450 [12]: 0.895; OD450 [13]: 0.059; OD450 [14]: 1.54; OD450 [15]: 0.058; OD450 [16]: 0.065; OD450 [17]: 0.06; Kd [18]: 1.43 nM; koff [18]: 0.000806 s⁻¹; kon [18]: 564000 M⁻¹ s⁻¹
B5	0.07	0.129	0.059	0.112	0.067	0.063	0.058	0.065	2.57 nM	0.00252 s⁻¹	979000 M⁻¹ s⁻¹	–
B6	0.07	0.065	0.059	0.098	0.068	0.064	0.072	0.063	–	–	–	–
B7	–	–	–	–	–	–	–	–	–	–	–	Kd (human serum albumin): 11.3 nM; koff (human serum albumin): 0.00511 s⁻¹; kon (human serum albumin): 454000 M⁻¹ s⁻¹; Kd (murine serum albumin): 5.32 nM; koff (murine serum albumin): 0.000605 s⁻¹; kon (murine serum albumin): 114000 M⁻¹ s⁻¹
B8	2.89	3.08	1.69	2.7	0.397	0.203	0.181	0.129	0.781 nM	0.000552 s⁻¹	707000 M⁻¹ s⁻¹	–
B9	–	–	–	–	–	–	–	–	–	–	–	OD450 [9]: 1.41; OD450 [10]: 1.68; OD450 [11]: 0.85; OD450 [12]: 1.73; OD450 [13]: 0.25; OD450 [14]: 1.67; OD450 [15]: 0.061; OD450 [16]: 0.085; OD450 [17]: 0.059; Kd [18]: < 0.001 nM; koff [18]: 1e-06 s⁻¹; kon [18]: 784000 M⁻¹ s⁻¹
B10	0.828	1.76	0.11	1.58	0.065	0.066	0.068	0.068	0.657 nM	0.000539 s⁻¹	820000 M⁻¹ s⁻¹	–
B11	0.084	0.292	0.061	0.264	0.065	0.064	0.067	0.07	4.55 nM	0.00276 s⁻¹	606000 M⁻¹ s⁻¹	–
B12	0.089	0.183	0.065	0.165	0.06	0.067	0.062	0.066	1.82 nM	0.00129 s⁻¹	708000 M⁻¹ s⁻¹	–
B13	–	–	–	–	–	–	–	–	–	–	–	OD450 [9]: 1.59; OD450 [10]: 1.64; OD450 [11]: 1.02; OD450 [12]: 1.64; OD450 [13]: 0.287; OD450 [14]: 1.57; OD450 [15]: 0.055; OD450 [16]: 0.098; OD450 [17]: 0.055; Kd [18]: 0.106 nM; koff [18]: 7.65e-05 s⁻¹; kon [18]: 722000 M⁻¹ s⁻¹
